Measured values as given in the Human Domainome abundance scans (Beltran et al. 2025).

B1: Nucleolar transcription factor 1, residues 408 to 469; numbered along this chain, P17480 (parent)
chain: KRPVSAMFIFSEEKRRQLQEERPELSESELTRLLARMWNDLSEKKKAKYKAREAALKAQSER

Variants of: B1
Experiment: abundance fitness (aPCA) (normalised: wild type 0, dead -1); higher = more abundant; growth selection in yeast, the domain comes from the species named
Settings: Homo sapiens

Abundance fitness, by site and new letter:
S5: M -0.196; N 0.047; P -0.112; Q -0.115; T -0.042; V -0.187; W -0.455; Y -0.146
A6: C -0.225; D -0.191; E -0.17; F -0.573; G -0.045; H -0.534; L -0.661; M -0.418; P -0.306; Q -0.331; R -0.401; S -0.191; T -0.44; V -0.488; W -0.453; Y -0.155
M7: A -0.038; C -0.066; D -0.144; E -0.045; F -0.015; G -0.131; H -0.028; I -0.151; K -0.015; L -0.086; N -0.086; P -0.053; Q 0.012; R -0.043; S -0.056; T -0.22; V -0.058; W -0.178; Y -0.012
F8: A -0.092; C -0.069; D -0.023; E 0.02; G 0.029; I -0.02; K -0.004; M -0.003; N 0.024; P -0.235; Q -0.236; R 0.005; S -0.039; T -0.066; V -0.027; W -0.03; Y -0.001
I9: A -0.095; C -0.074; D -0.484; E -0.38; F -0.113; G -0.43; H -0.518; K -0.258; L -0.027; N -0.223; P -0.365; Q -0.202; R -0.172; S -0.191; T -0.217; V -0.131; Y -0.181
F10: A -0.829; C -1.04; D -1.01; E -0.875; G -0.683; H -0.258; I -0.948; K -0.857; L -0.731; M -0.522; N -0.562; P -0.677; Q -0.82; R -0.88; S -0.648; T -0.751; V -1.09; W -0.075; Y 0.039
S11: A -0.07; C -0.102; E -0.023; F -0.029; G -0.028; H -0.146; L -0.049; M 0.093; P -1.16; Q -0.027; R -0.13; T -0.013; V 0.024; W -0.08; Y 0.011
E12: C -0.19; D -0.092; F -0.315; G -0.175; H -0.169; I -0.201; K -0.059; L -0.182; M -0.089; N -0.048; P -0.738; Q -0.13; S -0.028; T -0.069; V -0.163; W -0.253; Y -0.251
E13: A -0.205; C -0.175; D -0.04; F -0.359; G -0.22; H -0.22; I -0.177; K -0.106; L -0.277; M -0.124; N -0.344; P -0.663; R -0.207; T -0.167; V -0.187; W -0.355; Y -0.29
K14: A -0.057; C -0.319; D -0.729; E -0.229; F -0.034; G -0.238; H 0.062; I -0.085; M -0.044; N -0.086; P -0.956; Q -0.064; R -0.034; V -0.07; W -0.167; Y -0.038
R15: A -0.201; C -0.218; D -1.2; E -0.279; F -0.111; G -0.153
